In US20230279368A1 (NORTH CAROLINA STATE UNIVERSITY, published 2023):

B1: rBHT(23-594)-HIS (enzyme)
chain: VTYPGAIPLSLTSNYETPSPTAIPLEPTPTATGTAELDALWNLVEAQYPVQTAAVTTLVTVPDDYKFEADPPSYALAGYETSEIAGLKFPKGFKFGVAGAAIQVEGAAKAEGRGPSTWDYLCHHYASTQCNNYDPDITTNHYYLYPLDFARLQHLGINTYSFSISWTRIYPLGAGYVNEAGLAHYDAVIHSAKKYGLEPVGTVFHWDTPLSLMLKYGAWQDTGDQIVKDFVTYATTVFKRYGNEVKTWFTFNEPRVFCSQNSGLPYNLTYPEGINSTSAVFRCTYNVLKAHGHAVKVYRDLVASGTIAAGEIGFKSDDNYPIPARPGNADDEESAKRHEAFRIGIFAQPVYGNGDYPDVVKETVGDMLPALTDEDKGYIKGSGDIFAIDGYRTDISHAALNGIANCIRNQSDPNWPVCEEGSDPFAHVYPSGFAIGQSADPLSSWLVNSAPFIRDQLKFLTQTYPAKGGIYFSEFGWAEDAEYDRQLLYQITWDGLRTQYLTDYLSQLLLAVHKDGINLRGALTWSFVDNWEWGLGMQQKFGFQFVNQSDPDLTRTFKLSAHAYAQFGRNHLHHHHHH
modifications: N-glycosylated at N289, N297, N431 and N569 (numbering of full-length BHT, SEQ ID NO: 1), expressed in K. pastoris
notes: the entries describe its self-association into a homodimer
B2: rBHT(32-594)-HIS (enzyme)
chain: SLTSNYETPSPTAIPLEPTPTATGTAELDALWNLVEAQYPVQTAAVTTLVTVPDDYKFEADPPSYALAGYETSEIAGLKFPKGFKFGVAGAAIQVEGAAKAEGRGPSTWDYLCHHYASTQCNNYDPDITTNHYYLYPLDFARLQHLGINTYSFSISWTRIYPLGAGYVNEAGLAHYDAVIHSAKKYGLEPVGTVFHWDTPLSLMLKYGAWQDTGDQIVKDFVTYATTVFKRYGNEVKTWFTFNEPRVFCSQNSGLPYNLTYPEGINSTSAVFRCTYNVLKAHGHAVKVYRDLVASGTIAAGEIGFKSDDNYPIPARPGNADDEESAKRHEAFRIGIFAQPVYGNGDYPDVVKETVGDMLPALTDEDKGYIKGSGDIFAIDGYRTDISHAALNGIANCIRNQSDPNWPVCEEGSDPFAHVYPSGFAIGQSADPLSSWLVNSAPFIRDQLKFLTQTYPAKGGIYFSEFGWAEDAEYDRQLLYQITWDGLRTQYLTDYLSQLLLAVHKDGINLRGALTWSFVDNWEWGLGMQQKFGFQFVNQSDPDLTRTFKLSAHAYAQFGRNHLHHHHHH
notes: the entry describes its self-association into a dimer
B3: rBHT(54-594)-HIS (enzyme)
chain: TGTAELDALWNLVEAQYPVQTAAVTTLVTVPDDYKFEADPPSYALAGYETSEIAGLKFPKGFKFGVAGAAIQVEGAAKAEGRGPSTWDYLCHHYASTQCNNYDPDITTNHYYLYPLDFARLQHLGINTYSFSISWTRIYPLGAGYVNEAGLAHYDAVIHSAKKYGLEPVGTVFHWDTPLSLMLKYGAWQDTGDQIVKDFVTYATTVFKRYGNEVKTWFTFNEPRVFCSQNSGLPYNLTYPEGINSTSAVFRCTYNVLKAHGHAVKVYRDLVASGTIAAGEIGFKSDDNYPIPARPGNADDEESAKRHEAFRIGIFAQPVYGNGDYPDVVKETVGDMLPALTDEDKGYIKGSGDIFAIDGYRTDISHAALNGIANCIRNQSDPNWPVCEEGSDPFAHVYPSGFAIGQSADPLSSWLVNSAPFIRDQLKFLTQTYPAKGGIYFSEFGWAEDAEYDRQLLYQITWDGLRTQYLTDYLSQLLLAVHKDGINLRGALTWSFVDNWEWGLGMQQKFGFQFVNQSDPDLTRTFKLSAHAYAQFGRNHLHHHHHH
notes: as for B2
B4: rBHT(57-594)-HIS (enzyme)
chain: AELDALWNLVEAQYPVQTAAVTTLVTVPDDYKFEADPPSYALAGYETSEIAGLKFPKGFKFGVAGAAIQVEGAAKAEGRGPSTWDYLCHHYASTQCNNYDPDITTNHYYLYPLDFARLQHLGINTYSFSISWTRIYPLGAGYVNEAGLAHYDAVIHSAKKYGLEPVGTVFHWDTPLSLMLKYGAWQDTGDQIVKDFVTYATTVFKRYGNEVKTWFTFNEPRVFCSQNSGLPYNLTYPEGINSTSAVFRCTYNVLKAHGHAVKVYRDLVASGTIAAGEIGFKSDDNYPIPARPGNADDEESAKRHEAFRIGIFAQPVYGNGDYPDVVKETVGDMLPALTDEDKGYIKGSGDIFAIDGYRTDISHAALNGIANCIRNQSDPNWPVCEEGSDPFAHVYPSGFAIGQSADPLSSWLVNSAPFIRDQLKFLTQTYPAKGGIYFSEFGWAEDAEYDRQLLYQITWDGLRTQYLTDYLSQLLLAVHKDGINLRGALTWSFVDNWEWGLGMQQKFGFQFVNQSDPDLTRTFKLSAHAYAQFGRNHLHHHHHH
notes: as for B2

What was measured:
[1] = biological target: the molecule itself; assay: size exclusion chromatography and SAXS, self-association (homodimer)
Protocol: Size Exclusion Chromatography. To determine molecular mass, NTA purified samples were subjected to size exclusion chromatography (Superdex 200 10/300 GL, GE Healthcare) equilibrated with SEC buffer (100 mM Tris pH7.5, 200 mM sodium chloride). The protein sample equilibrated in SEC buffer was applied to the column. The mass of BHT₍₂₃₋₅₉₄₎-HIS was calculated based on the standards in the high molecular weight gel calibration kit (Cytiva Life Sciences*).
Small angle X-ray scattering: Data Collection and Analysis. rBHT₍₂₃₋₅₉₄₎-HIS samples at 1 mg/ml and 4 mg/ml 5 mM in sodium phosphate buffer at pH 5 were measured on a Rigaku Bio-SAXS 2000. The instrument uses Cu Kα radiation (λ=1.54 Å) and was collimated to provide a sufficient Q-range of 0.01-0.67 Å⁻¹. Measurements were performed at ambient temperature. Samples were measured for a total of 40 min in 5 min scans. Data were corrected for transmission and sample background. […]
The dimer conformation was further validated in solution by small X-ray scattering (SAXS) (FIG. 7A). […] Molecular mass were calculated using the method described by Rambo and Tamer. The molecular mass determined from SAXS (˜169 KDa) confirmed that BHT forms a dimer in solution Table 3. […] The Rg and Dₘₐₓ of the 6M4F crystallographic dimer (molecule A and molecule C) calculated using Crysol are 34 Å and 110 Å, respectively. […]

[2] = biological target: the molecule itself; assay: size exclusion chromatography, self-association (homodimer); data not shown

Protein	binding result [1]	binding result [2]
B1	binds	–
B2	–	binds
B3	–	binds
B4	–	binds
